The results in this text go back to US20110091994A1, “Methods for Screening Compounds for Treating and/or Preventing an Hepatitis C Virus Infection” (priority 2008, published 2011).

B1: PMVK (protein, UniProt Q15126 1-192, looked up)
Phosphomevalonate kinase: MAPLGGAPRLVLLFSGKRKSGKDFVTEALQSRLGADVCAVLRLSGPLKEQYAQEHGLNFQRLLDTSTYKEAFRKDMIRWGEEKRQADPGFFCRKIVEGISQPIWLVSDTRRVSDIQWFREAYGAVTQTVRVVALEQSRQQRGWVFTPGVDDAESECGLDNFGDFDWVIENHGVEQRLEEQLENLIEFIRSRL
B2: IGLL1 (protein, UniProt P15814 38-213, looked up)
Immunoglobulin lambda-like …: LLRPTAASQSRALGPGAPGGSSRSSLRSRWGRFLLQRGSWTGPRCWPRGFQSKHNSVTHVFGSGTQLTVLSQPKATPSVTLFPPSSEELQANKATLVCLMNDFYPGILTVTWKADGTPITQGVEMTTPSKQSNNKYAASSYLSLTPEQWRSRRSYSCQVMHEGSTVEKTVAPAECS
B3: PARVG (protein, UniProt Q9HBI0 1-331, looked up)
Gamma-parvin: MEPEFLYDLLQLPKGVEPPAEEELSKGGKKKYLPPTSRKDPKFEELQKVLMEWINATLLPEHIVVRSLEEDMFDGLILHHLFQRLAALKLEAEDIALTATSQKHKLTVVLEAVNRSLQLEEWQAKWSVESIFNKDLLSTLHLLVALAKRFQPDLSLPTNVQVEVITIESTKSGLKSEKLVEQLTEYSTDKDEPPKDVFDELFKLAPEKVNAVKEAIVNFVNQKLDRLGLSVQNLDTQFADGVILLLLIGQLEGFFLHLKEFYLTPNSPAEMLHNVTLALELLKDEGLLSCPVSPEDIVNKDAKSTLRVLYGLFCKHTQKAHRDRTPHGAPN
B4: NFE2 (protein, UniProt Q16621 1-373, looked up)
Transcription factor NF-E2 45 …: MSPCPPQQSRNRVIQLSTSELGEMELTWQEIMSITELQGLNAPSEPSFEPQAPAPYLGPPPPTTYCPCSIHPDSGFPLPPPPYELPASTSHVPDPPYSYGNMAIPVSKPLSLSGLLSEPLQDPLALLDIGLPAGPPKPQEDPESDSGLSLNYSDAESLELEGTEAGRRRSEYVEMYPVEYPYSLMPNSLAHSNYTLPAAETPLALEPSSGPVRAKPTARGEAGSRDERRALAMKIPFPTDKIVNLPVDDFNELLARYPLTESQLALVRDIRRRGKNKVAAQNCRKRKLETIVQLERELERLTNERERLLRARGEADRTLEVMRQQLTELYRDIFQHLRDESGNSYSPEEYALQQAADGTIFLVPRGTKMEATD
B5: CCDC100 (protein, UniProt Q8N960 1-986, looked up)
Centrosomal protein of 120 kDa: MVSKSDQLLIVVSILEGRHFPKRPKHMLVVEAKFDGEQLATDPVDHTDQPEFATELAWEIDRKALHQHRLQRTPIKLQCFALDPVTSAKETIGYIVLDLRTAQETKQAPKWYQLLSNKYTKFKSEIQISIALETDTKPPVDSFKAKGAPPRDGKVPAILAGLDPRDIVAVLNEEGGYHQIGPAEYCTDSFIMSVTIAFATQLEQLIPCTMKLPERQPEFFFYYSLLGNDVTNEPFNDLINPNFEPERASVRIRSSVEILRVYLALQSKLQIHLCCGDQSLGSTEIPLTGLLKKGSTEINQHPVTVEGAFTLDPPNRAKQKLAPIPVELAPTVGVSVALQREGIDSQSLIELKTQNEHEPEHSKKKVLTPIKEKTLTGPKSPTVSPVPSHNQSPPTKDDATESEVESLQYDKDTKPNPKASSSVPASLAQLVTTSNASEVASGQKIAVPATSHHFCFSIDLRSIHALEIGFPINCILRYSYPFFGSAAPIMTNPPVEVRKNMEVFLPQSYCAFDFATMPHQLQDTFLRIPLLVELWHKDKMSKDLLLGIARIQLSNILSSEKTRFLGSNGEQCWRQTYSESVPVIAAQGSNNRIADLSYTVTLEDYGLVKMREIFISDSSQGVSAVQQKPSSLPPAPCPSEIQTEPRETLEYKAALELEMWKEMQEDIFENQLKQKELAHMQALAEEWKKRDRERESLVKKKVAEYTILEGKLQKTLIDLEKREQQLASVESELQREKKELQSERQRNLQELQDSIRRAKEDCIHQVELERLKIKQLEEDKHRLQQQLNDAENKYKILEKEFQQFKDQQNNKPEIRLQSEINLLTLEKVELERKLESATKSKLHYKQQWGRALKELARLKQREQESQMARLKKQQEELEQMRLRYLAAEEKDTVKTERQELLDIRNELNRLRQQEQKQYQDSTEIASGKKDGPHGSVLEEGLDDYLTRLIEERDTLMRTGVYNHEDRIISELDRQIREILAKSNASN
B6: LIMS2 (protein, UniProt Q7Z4I7 1-341, looked up)
LIM and senescent cell …: MTGSNMSDALANAVCQRCQARFSPAERIVNSNGELYHEHCFVCAQCFRPFPEGLFYEFEGRKYCEHDFQMLFAPCCGSCGEFIIGRVIKAMNNNWHPGCFRCELCDVELADLGFVKNAGRHLCRPCHNREKAKGLGKYICQRCHLVIDEQPLMFRSDAYHPDHFNCTHCGKELTAEARELKGELYCLPCHDKMGVPICGACRRPIEGRVVNALGKQWHVEHFVCAKCEKPFLGHRHYEKKGLAYCETHYNQLFGDVCYNCSHVIEGDVVSALNKAWCVSCFSCSTCNSKLTLKNKFVEFDMKPVCKRCYEKFPLELKKRLKKLSELTSRKAQPKATDLNSA
B7: OS9 (protein, UniProt Q13438 26-667, looked up)
Protein OS-9: GGVGSLNLEELSEMRYGIEILPLPVMGGQSQSSDVVIVSSKYKQRYECRLPAGAIHFQREREEETPAYQGPGIPELLSPMRDAPCLLKTKDWWTYEFCYGRHIQQYHMEDSEIKGEVLYLGYYQSAFDWDDETAKASKQHRLKRYHSQTYGNGSKCDLNGRPREAEVRFLCDEGAGISGDYIDRVDEPLSCSYVLTIRTPRLCPHPLLRPPPSAAPQAILCHPSLQPEEYMAYVQRQADSKQYGDKIIEELQDLGPQVWSETKSGVAPQKMAGASPTKDDSKDSDFWKMLNEPEDQAPGGEEVPAEEQDPSPEAADSASGAPNDFQNNVQVKVIRSPADLIRFIEELKGGTKKGKPNIGQEQPVDDAAEVPQREPEKERGDPERQREMEEEEDEDEDEDEDEDERQLLGEFEKELEGILLPSDRDRLRSEVKAGMERELENIIQETEKELDPDGLKKESERDRAMLALTSTLNKLIKRLEEKQSPELVKKHKKKRVVPKKPPPSPQPTEEDPEHRVRVRVTKLRLGGPNQDLTVLEMKRENPQLKQIEGLVKELLEREGLTAAGKIEIKIVRPWAEGTEEGARWLTDEDTRNLKEIFFNILVPGAEEAQKERQRQKELESNYRRVWGSPGGEGTGDLDEFDF
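Further: yeast two-hybrid screens using HCV genotype 1b proteins fused to Gal4-DB as baits against prey cDNA libraries from human spleen and foetal brain, IMAP1 via transformation and IMAP2 via mating.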

The target in one assay is T1, HCV ORFs (Gal4-DB fusions) (Hepatitis C virus genotype 1b, UniProt Q9WMX2).
T1 construct: expressed in transfected cells; host or cells: Saccharomyces cerevisiae MAV203 (IMAP1) / AH109 (IMAP2)
The assay is classed as binding, HCV genotype 1b, isolate con1. Particulars: HCV protein NS5A as bait; human protein as prey.
As for B1, the “IMAP Y2H IMAP2 (number of IST)” value turned out to be 1.

With B2, the “IMAP Y2H IMAP2 (number of IST)” value worked out at 1.

In the case of B3, the “IMAP Y2H IMAP2 (number of IST)” value was 1.

Take B4: the “IMAP Y2H IMAP2 (number of IST)” value is 1.

For B5, the “IMAP Y2H IMAP2 (number of IST)” value was 1.

Regarding B6, the “IMAP Y2H IMAP2 (number of IST)” value came out at 1.

Staying with this assay, now noted: HCV protein NS5B as bait; human protein as prey.
Turning to B7, the “IMAP Y2H IMAP2 (number of IST)” value turned out to be 3.

The next assay has as its system HCV ORFs (Gal4-DB fusions). The class given is binding, HCV genotype 1b, isolate con1. The conditions noted are these: human protein listed by gene symbol; the value names the HCV protein it interacts with.
As for B7, the “Interaction with viral protein” value is on record as “NS5A”.

As to B1, the “Interaction with viral protein” value is on record as “NS5A”.

With B2, the “Interaction with viral protein” value is given as “NS5A”.

Regarding B3, the “Interaction with viral protein” value is listed as “NS5A”.

For the molecule B4, the “Interaction with viral protein” value was “NS5A”.

Regarding B5, the “Interaction with viral protein” value is recorded as “NS5A”.

For B6, the “Interaction with viral protein” value is “NS5A”.
